± gives the uncertainty stated by the source.
Experiment: self-splicing fitness, log relative to wild type (ln ratio); higher = more splicing; Tetrahymena group I intron in knt gene, E. coli kanamycin selection, DiMSum; sequences stand for … in CUCUCU…GGAGGGAAAAGUUAUCAGGCAUGCACCUGGUAGCUAGUCUUUAAACCAAUAGAUUGCAUCGGUUUAAAAGGCAAGACCGUCAAAUUGCGGGAAAGGGGUCAACAGCCGUUCAGUACCAAGUCUCAGGGGAAACUUUGAGAUGGCCUUGCAAAGGGUAUGGUAAUAAGCUGACGGACAUGGUCCUAACCACGCAGCCAAGUCCUAAGUCAACAGAUCUUCUGUUGAUAUGGAUGCAGUUCACAGACUAAAUGUCGGUCGGGGAAGAUGUAUUCUUCUCAUAAGAUAUAGUCGGACCUCUCCUUAAUGGGAGCUAGCGGAUGAAGUGAUGCAACACUGGAGCCGCUGGGAACUAAUUUGUAUGCGAAAGUAUAUUGAUUAGUUUUGGAGUACUCGUGGUCG
Procedure, shortened: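 Library with all eight P1ex-region intron nucleotides randomised, intron inside the knt kanamycin-resistance gene on pET-22b(+), in E. coli BL21(DE3). Cells grew overnight at 37°C or 30°C on LB agar with or without 25 μg/mL kanamycin (plus 100 μg/mL carbenicillin, 50 μM IPTG, 0.2% rhamnose), in six replicate transformations. Pooled colonies were amplicon-sequenced on Illumina HiSeq 2500. DiMSum fitness is the error-weighted combination of wild-type-normalised replicate fold changes, kanamycin versus none.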

Sequence	self-splicing fitness (ln) (30 °C)	self-splicing fitness (ln) (37 °C)
AAGAAGCAAUAUUACGCGGC	-3.5 ± 0.49	-2.17 ± 0.44
AAGAAGCAAUAUUACGCGUG	-0.716 ± 0.073	-0.537 ± 0.093
AAGAAGCAAUAUUACGGAUA	-1.67 ± 0.1	-1.38 ± 0.12
AAGAAGCAAUAUUACGGCCG	-1.47 ± 0.12	-0.0374 ± 0.15
AAGAAGCAAUAUUACGUAAU	-1.89 ± 0.097	-1.2 ± 0.12
AAGAAGCAAUAUUACGUCUA	-0.234 ± 0.066	-0.565 ± 0.098
AAGAAGCAAUAUUACGUGAU	-1.96 ± 0.11	-2.09 ± 0.11
AAGAAGCAAUAUUACGUUCA	-0.746 ± 0.077	0.133 ± 0.099
AAGAAGCAAUAUUACGUUUA	-1.62 ± 0.074	-1.01 ± 0.077
AAGCAGCAAUAUUACGAAAC	-3.7 ± 0.4	-1.8 ± 0.38
AAGCAGCAAUAUUACGACAC	-1.25 ± 0.058	-0.831 ± 0.073
AAGCAGCAAUAUUACGACUU	-0.223 ± 0.074	-0.323 ± 0.086
AAGCAGCAAUAUUACGAGGA	-2.82 ± 0.22	-2.16 ± 0.18
AAGCAGCAAUAUUACGCAAA	-1.82 ± 0.14	-1.65 ± 0.13
AAGCAGCAAUAUUACGCAAG	-2.43 ± 0.19	-0.222 ± 0.098
AAGCAGCAAUAUUACGCUGC	-3.47 ± 0.13	-3.05 ± 0.18
AAGCAGCAAUAUUACGCUUC	-2.97 ± 0.18	-2.81 ± 0.26
AAGCAGCAAUAUUACGGGAG	-3.74 ± 0.16	-3.05 ± 0.23
AAGCAGCAAUAUUACGGUCC	-1.17 ± 0.1	-0.771 ± 0.17

Sequence	self-splicing fitness (ln) (30 °C)	self-splicing fitness (ln) (37 °C)
AAGCAGCAAUAUUACGGUGC	-3.29 ± 0.15	-1.61 ± 0.14
AAGCAGCAAUAUUACGGUUG	-3.08 ± 0.14	-2.01 ± 0.15
AAGCAGCAAUAUUACGUGCC	-1.23 ± 0.11	-1.47 ± 0.12
AAGCAGCAAUAUUACGUGGC	-4.15 ± 0.39	-1.92 ± 0.2
AAGGAGCAAUAUUACGACCA	–	-1.82 ± 0.31
AAGGAGCAAUAUUACGACGU	-1.88 ± 0.13	-0.122 ± 0.14
AAGGAGCAAUAUUACGAUUC	-1.13 ± 0.19	-1.78 ± 0.48
AAGGAGCAAUAUUACGAUUG	-3.8 ± 0.32	-0.948 ± 0.15
AAGGAGCAAUAUUACGCCCU	-1.87 ± 0.35	-1.91 ± 0.43
AAGGAGCAAUAUUACGCGGA	-2.07 ± 0.13	-2.71 ± 0.2
AAGGAGCAAUAUUACGGAGA	-3.62 ± 0.31	-2.35 ± 0.27
AAGGAGCAAUAUUACGGCUG	-2.21 ± 0.23	-1.37 ± 0.27
AAGGAGCAAUAUUACGGGAU	-4.25 ± 0.29	-3.56 ± 0.36
AAGGAGCAAUAUUACGGUUU	-2.45 ± 0.12	-1.07 ± 0.11
AAGGAGCAAUAUUACGUAUG	-3.31 ± 0.34	-3.58 ± 0.33
AAGGAGCAAUAUUACGUCAA	-1.97 ± 0.22	-2.96 ± 0.4
AAGGAGCAAUAUUACGUCUC	-2.84 ± 0.48	–
AAGGAGCAAUAUUACGUGAU	-2.78 ± 0.18	-2.45 ± 0.3
AAGGAGCAAUAUUACGUGUG	-3.39 ± 0.17	-0.957 ± 0.15

Source: the supplement of paper PMC7877785
